We go through 1 substance from patent publication US20180371095A1.

The target in the experiment is recombinant human VSIG4 (rhVSIG4), construct not stated (human) (UniProt Q9Y279). Description: ELISA, soluble rhVSIG4 coated, streptavidin-HRP detection, background corrected. A general note: ELISA stands for enzyme-linked immunosorbent assay.

As to “biotinylated rhSIGLEC-7 (from UniProt Q9Y286 19-357) (ligand)”, the absorbance at 452 nm is 2.3 absorbance.
